Experimental data: FireProtDB (doi:10.1016/s0014-5793(98)01666-4)

B1: Parvalbumin alpha, P02625 (parent)
chain: MSMTDLLSAEDIKKAIGAFTAADSFDHKKFFQMVGLKKKSADDVKKVFHILDKDKSGFIEEDELGSILKGFSSDARDLSAKETKTLMAAGDKDGDGKIGVEEFSTLVAES

Variants of: B1
Details: Rattus norvegicus; pH 7.4; Thermal; DSC; EDTA 10 mM; NaCl 0.20 M; transition: 2; reversible: yes; structure 1RTP; whole UniProt chain shown

Row | Variant | Tm | unfolding enthalpy (calorimetric) | unfolding enthalpy (van 't Hoff)
1 | E109S | 41.8 °C | 62 kcal/mol | 63 kcal/mol
